Measurements reported in the DeepSol protein solubility set.

Assay: soluble on expression in E. coli; label from the status in PepcDB or PDB records

Sequence | soluble on expression in E. coli
MIEKKKNRSKLKREAILAAAKKAYQDDGVQNTSMDKLASLAQVSKRTVYNHFSSKEALVMELLSDLWQNSMADIDIQFSENVSIQDQLERLLLAELNVIGAQSYLDLAKVAFGHFFYKPDELQLQVEKMAEQETALSRWLQLMMDTKKLTIEDKHKAGVQLHSLLKGSAFWPQLVGMRAVLSSEEKEQLVTETADMFLSRYLKR | not soluble
PPESDGFSDVRKVGYLRKPKSMHKRFFVLRAASEAGGPARLEYYENEKKWRHKSSAPKRSIPLESCFNINKRADSKNKHLVALYTRDEHFAIAADSEAEQDSWYQALLQLHNRAKGHHDGAAALGAGGGGGSCSGSSGLGEAGEDLSYGDVPPGPAFKEVWQVILKPKGLGQTKNLIGIYRLCLTSKTISFVKLNSEAAAVVLQLMNIRRCGHSENFFFIEVGRSAVTGPGEFWMQVDDSVVAQNMHETILEAMRAMSDEFRPR | soluble
MAHHHHHHMGTLEAQTQGPGSMLYIIGLGLYDEKDITVRGLEAVKSCDLVFLEHYTAILQCDVAKLEEFYGKKVIIGDRDLVETEADQILEPAKTKNVALLVVGDVYGATTHSDIFVRCQKMGIEVKVIHNASIMNAIGCSGLQLYRFGQTVSVCFWSEHWRPSSYYPKIKINRDNNMHTLVLLDIKVKERSEESIIKGRDIFEPPRYMTINQCIEQLLEVEKEQHLGVYDEDTMVVGMARVACADQKIVYGKMKDLLHYDFGAPMHCLLIPAPQVDDPELDQLEYFKYKPE | soluble
MSRDLLGLEGKIVMVTGAGRGFGRAIAHGYGRNGATVIAVDPDVELATGVASEVEALGATAIPIRGDMSVVLDVTSTFEKVEELFGLLDGIVHVTTAESKTPFVELLEGEWYDLMSQDVKSSLYVLQQGLRHLAGGGFVTIVLPPAARIEPHTVSVRKAVEGLIEGATRTFPGVRVNGVVPSRDPVGDPYDLPLVRAALGLGSMVSEGIRGVVLEVQLPEPPLEFEPYAALRELP | soluble
MGSDKIHHHHHHMEYINEVTINEAIIHVLDNSSEGVVFNEVELELNEETYEYILKHIQKCLKDEELKYAVFNVERNLAKELSQEYLDGKSDIVSVSKELASQLFVIMKSNGNIPSCDLLTAAITTEYGRMLVVLKMDYVKNYTHNIDVVDDKVEINIIPQFIGLPSSGQKIQKCAFIKPIREENNFDLMVIDKNSGKKDEDEYGSNYFINNYLGCKIINNERDLTKTFVKSAEKWTQKNLKDNADAAELVRTSIKKRLKEDDSININEVSDEIFGENKEAKDNFVEFIKKQGIEEKIELDKQWVENKMKRTRLKIDKDIDLYINEETYNDSSRFEIKRNGDGTINMIIKQVRNYVEK | not soluble
MSLGNTTVVTTTVRNATPSLTLDAGTIERFLAHSHRRRYPTRTDVFRPGDPAGTLYYVISGSVSIIAEEDDDRELVLGYFGSGEFVGEMGLFIESDTREVILRTRTQCELAEISYERLQQLFQTSLSPDAPRILYAIGVQLSKRLLDTTRKASRLAFLDVTDRIVRTLHDLSKEPEAMSHPQGTQLRVSRQELARLVGCSREMAGRVLKKLQADGLLHARGKTVVLYGTR | soluble
MSLDLHTHTIYSDGIGSVIDNVNMAEIRGLRLLGISDHIHFFTPSKFLKYVNEVRSIGREAEIPVLVGIEANITENGPDVTEDFAKHLDYVIASVHDWFGEGEVYRYIERIKLALMDENVTIIGHFGNVFPWIGYPTEEQIKEVLDVAEEYGKAFEISSRYRVPDLEFVKMCIKRGIKLVFASDAHRPEDVGRVDWSIKVFEKAGGKKEDLLFSEEGHHHHHH | soluble
MRGWHHHHHHGIRMRARYPSVVDVYSVEQFRNIMSEDILTVAWFTAVWCGPCKTIERPMEKIAYEFPTVKFAKVDADNNSEIVSKCRVLQLPTFIIARSGKMLGHVIGANPGMLRQKLRDIIKDN | soluble
MSLRAIGLSNQVQHLKETVIAVEKKSKHKKTDDSLDISRIQYYMNNFVYYYINYSQDTADQRKTELENYYSFSTASMTDDVRKSRTLQTQRLISVEKEKDYYIALMRIGYEVDKKSYQMNLAVPFQMQRGLLAIVSQPYTVAEDLYLGKSKAFEKKTLDQVKELSKEQVSSIQKFLPVFFNKYALINKTDLKLLMKTPELMGKGFKVSELDLNNAIYYQEKKHQVVQLSVTFEDLVTGGTRSENFTLYLFKADNGWYVEEMYHYFKEGHHHHHH | soluble
MGSDKIHHHHHHMKRRELLVLGGLSTIAAGMGRQWFQPVSAQAITPLPASDRPLDLRFIAVADTGTGARGQYDVAAAMERYRRANPYKLAVLAGDNIYNNGEIEKIQAVFERPYAPLLKSGVKFRAVLGNHDIRTNNGNDQVRYPGFNMTGRYYQFQEGPVAFFALDTNGNADWNKQLTWLDRALQASNAPWKVVFGHHPIYSSGFYGVNRTLLGRLVPLFKRHGVQLYISGHDHSYERTQPIDGTTYLIVGAGAGLRPVGRSSWTAQSASTLSFAGLEVYGNELRIQTFDKDSRLIDQGQIFA | not soluble
SLSRPWQGKGCATLWASVDHRFQINLRGVIDLLSHHLYSSPDVYIRELLQNATDAIRARQHLEPGHEGSIRIELIEKQDGGPPTLLFSDDGIGLTEEEIHRFLATIGESSKREVLAERRGDFIGQFGIGLLSCFMVCDEVLVVTRSAQGGSPTMEWRGRHDGIYTVRPSGHPLERPGTQVFLVARPDAASLFTPQRVRELALHYGGLLPFPIHLTAGGYSGRINTEG | soluble
MGSDKIHHHHHHMDIGHRMKELRIQYGLTQQELADRAELTKGFISQLERNQNSPSVGTLLDIIQCLGMTPAEFFTDSEPEQIVYKANDYFEKIDEEKNSKVEWIIPNAQTRSMEPVRLTLHPGGSSEIYLPQECEEFGYVIKGTVKLCYGGKVHTVKAGESFYFKAGKKHFIENKSSKDAMLIWVSNPPSF | not soluble
MGHHHHHHSHMEYSCGTAAIRGTKELGEGQHFWEIKMTSPVYGTLTFFKNRKCIGVAATKLQNKRFYPMVCSTAARSSMKVTRSCASATSLQYLCCHRLRQLRPDSGDTLEGLPLPPGLKQVLHNKLGWVLSMSCSRRKAPVSDPQAATSAHPSSREPRPCQRKRCRRT | not soluble
MKEACSSSSHVPVSDSKYILKSELLSLLKTYNCYHEGRSFQLRHREEEGTLIIEGLLNIAWGLRRPIRLQMQDDRERVHLPSATWVPERLSYLQKEASPQDSKVPTEEPGTQPANKAEVSGDSSGALEGEEEEVPQLMRTKSDASCIIQRRSKSRAPSEAQKIRRHRFSINGHFYNHKVKSPSALSWALKLRVQELFPSTEERAPNIQHSSHSSIR | soluble
MGSDKIHHHHHHSDDKDSYPVPSDIENLKATPAPGQITLSWTNPADENLYYVQIEYTIGATGKSYRKQVSQYANELVIDNLLQKYGEINFTVQAFNRGNTAGTIHQITAQAEKASPTFGTPVKIDLDYKKIWTNAPFPTRPIKDLVDGNIATFFHSWWSSLVEMPHYLVVDLGEEVSAIKFRSTNTNRANDSSWKTINLYTSDSYNPAEWFDGVEKIDGNTVDISQAGTHKETTLTGLPDGVSEVYNSEVIPLSKPSRYLWFEVTETTKGTPYFALGELEIYQCSMVVLE | not soluble
PLVKISGSSTVFPITEAVSEDFQAAKKGAIMVTAGIAGTGGGFKKFCRDEVDIVNASRPILSSEMEQCRQNGVQYIEMPIAFDALTVVVNPGNDWIKSMTVAELKKIWEPAAQEKILNWNQVNPAWPNARIKLFGAGADS | not soluble
MECPKEIVLLMHSYFDGDLQPEGEQQLKEHLRSCAACAAHFHELKKTVAFLQYAAHVAAPPSFAAKVMEAMPKERKTARLRRFMHRHPLLTAASLFLALTLGSLASSWGERGAFSVSADEHVIIRDHTVIVPKGETVKGDIVVRNGSIRIEGTVDGDVTVIHGKKYMASAGQVTGEVEEINQVFEWIWYNIKERFNRALQSIE | not soluble
MAGQLTFKRELEKVFEKELKKRIERIGKTPLSPLSLILFTRIAELSAIENGYIRPTEYEMREIFAARTTYSEGLLSTLKDIIYSHFLRSNLGEHLEDFIYTLQRIEDIQSKIDELILREMREVSLRKVYHELLRFLLDMLCDKDMVRFD | not soluble
MSSGRNISCRMATRSCFFRLLQGVEMLRIADKTFDSHLFTGTGKFASSQLMVEAIRASGSQLVTLAMKRVDLRQHNDAILEPLIAAGVTLLPNTSGAKTAEEAIFAAHLAREALGTNWLKLEIHPDARWLLPDPIETLKAAETLVQQGFVVLPYCGADPVLCKRLEEVGCAAVMPLGAPIGSNQGLETRAMLEIIIQQATVPVVVDAGIGVPSHAAQALEMGADAVLVNTAIAVADDPVNMAKAFRLAVEAGLLARQSGPGSRSYFAHATSPLTGFLEASA | soluble
MAKWLRDYLSFGGRRPPPQPPTPDYTESDILRAYRAQKNLDFEDPYEDAESRLEPDPAGPGDSKNPGDAKYGSPKHRLIKVEAADMARAKALLGGPGEELEADTEYLDPFDAQPHPAPPDDGYMEPYDAQWVMSELPGRGVQLYDTPYEEQDPETADGPPSGQKPRQSRMPQEDERPADEYDQPWEWKKDHISRAFAVQFDSPEWERTPGSAKELRRPPPRSPQPAERVDPALPLEKQPWFHGPLNRADAESLLSLCKEGSYLVRLSETNPQDCSLSLRSSQGFLHLKFARTRENQVVLGQHSGPFPSVPELVLHYSSRPLPVQGAEHLALLYPVVTQTP | soluble
MAHHHHHHMNNSKENDSVSKLSFKNKNIKLIKVPKFVSNKWLQYNNKDIVGLLGCNNNNNNDSEITELYVQKDDSDNVKKLRCNKNNTVNTYILKQNVIKLKSTNKSVSNSAGTLNNKSNDYTNTNKGKNTMNNLSKDNSDKHKEFDYVVCADLIKTCDYTYSFLPTLDQDYSSILKERHYKTNVKKERFTIIETRNEENMDATHTLFKYYTSEDKLNNESKDKNMKNNKRLFTDNDNLNTVSHSTSKQKAKQSKKMHVFDLDKAKISIFKIFEREGQNGVPFSFFTKSFNIPANHIKGILDEIAIKGKRDTDKKTVYFLKNCIG | not soluble
SKRFVIGIGGVTNGGKTTLAKSLQKHLPNCSVISQDDFFKPESEIDIDENGFLQYDVLEALNMEKMMSAVSCWMENPGSSAGPAALESAQGVPILIIEGFLLFNYKPLDTIWNRSYFLTVPYEECKRRRSTRVYEPPDPPGYFDGHVWPMYLKHRQEMSSITWDIVYLDGTRSEEDLFSQVYEDVKQELEKQNGL | soluble
ELVVTQESALTTSPGETVTLTCRSSSGAVTTSNYATWVQEKPDHLFTGLIGGTNKRAPGVPARFSGSLIGDRAALTITGAQTEDEAIYFCALWNSNHLVFGGGTKLEIKRTVAAPSVFIFPPSDEQLKSGTASVVCLLNNFYPREAKVQWKVDNALQSGNSQESVTEQDSKDSTYSLSSTLTLSKADYEKHKVYACEVTHQGLSSPVTKSFNRGEC | soluble
MGHHHHHHSHMINVDPPTGNYPATGGNSTHNITSESDSRLAFKVKSSNNEHYRVRPVYGFVDAKGKSKLDINRLPGPPKEDKIVIQYAEVPAEETDPMAPFKAGAQQGEIIVKLIAA | soluble
MHTFYLPFILSLSMPPKKKSSKTIYKFPQSFHDLPKSLSKNYYQPEPESIINDQIIIIKNFFNKDLCNELIKSFETQLNMETTPLIKSKEYAARFNDRSSMNDLLSANILWQYLQKILLDNPYNDEDLKEINQIFQDAVGLNPQLRVYRYTRGHHFGKHYDDSVICPIPPQGTKKGYTTWTLLIYLTGDEEFKGGGTIFYPEIKNIKPLNIHPNKGMALLHKHGDDCLKHEAEMVANGAKWVLRSDVVFPI | soluble
